From publication PMC3458577 (Nucleic Acids Research, 2012)

Target: Recombinant human WRN protein (wild type) (human, UniProt Q14191 1-1432)
Assay: co-IP

Sequence of Recombinant human WRN protein (wild type) (Q14191 whole entry): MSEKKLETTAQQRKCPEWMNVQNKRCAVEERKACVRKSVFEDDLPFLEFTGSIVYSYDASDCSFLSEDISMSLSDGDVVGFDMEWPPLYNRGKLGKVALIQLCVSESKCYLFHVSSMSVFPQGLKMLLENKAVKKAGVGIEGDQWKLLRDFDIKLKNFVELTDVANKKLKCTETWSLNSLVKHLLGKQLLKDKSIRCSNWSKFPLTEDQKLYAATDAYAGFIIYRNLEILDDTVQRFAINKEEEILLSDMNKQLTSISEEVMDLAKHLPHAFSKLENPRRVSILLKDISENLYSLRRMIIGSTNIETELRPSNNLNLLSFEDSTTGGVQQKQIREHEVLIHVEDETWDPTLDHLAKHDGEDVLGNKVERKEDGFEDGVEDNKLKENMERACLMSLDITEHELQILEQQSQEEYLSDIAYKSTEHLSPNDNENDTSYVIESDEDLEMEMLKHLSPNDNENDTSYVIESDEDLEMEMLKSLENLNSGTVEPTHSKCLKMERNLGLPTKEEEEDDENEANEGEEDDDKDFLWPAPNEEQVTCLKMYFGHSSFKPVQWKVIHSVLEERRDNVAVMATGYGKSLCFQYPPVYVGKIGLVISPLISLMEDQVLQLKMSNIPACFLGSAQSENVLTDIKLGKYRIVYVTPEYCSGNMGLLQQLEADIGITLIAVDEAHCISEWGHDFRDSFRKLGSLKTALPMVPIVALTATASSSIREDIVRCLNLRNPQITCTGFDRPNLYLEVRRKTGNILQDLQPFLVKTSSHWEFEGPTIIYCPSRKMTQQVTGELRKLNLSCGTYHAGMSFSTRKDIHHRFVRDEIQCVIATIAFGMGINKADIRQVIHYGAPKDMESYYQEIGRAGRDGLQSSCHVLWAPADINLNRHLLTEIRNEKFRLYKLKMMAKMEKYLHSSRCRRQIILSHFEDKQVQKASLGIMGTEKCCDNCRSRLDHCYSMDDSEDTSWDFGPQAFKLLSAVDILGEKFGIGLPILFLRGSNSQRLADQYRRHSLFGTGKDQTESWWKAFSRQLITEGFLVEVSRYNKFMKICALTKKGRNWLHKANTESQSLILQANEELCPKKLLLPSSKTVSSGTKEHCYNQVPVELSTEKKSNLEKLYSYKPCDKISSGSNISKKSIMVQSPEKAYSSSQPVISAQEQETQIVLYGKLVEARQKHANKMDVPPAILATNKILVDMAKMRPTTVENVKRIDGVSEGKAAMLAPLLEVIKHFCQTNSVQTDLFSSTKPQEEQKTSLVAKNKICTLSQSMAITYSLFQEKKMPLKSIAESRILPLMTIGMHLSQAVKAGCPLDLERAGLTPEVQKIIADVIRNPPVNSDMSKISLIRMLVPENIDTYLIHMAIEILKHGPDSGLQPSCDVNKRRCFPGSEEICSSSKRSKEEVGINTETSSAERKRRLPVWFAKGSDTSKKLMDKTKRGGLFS

Row | binding result | Binder
1 | binds | Recombinant human Polλ protein (enzyme, UniProt Q9UGP5 1-575, looked up) MDPRGILKAFPKRQKIHADASSKVLAKIPRREEGEEAEEWLSSLRAHVVRTGIGRARAELFEKQIVQHGGQLCPAQGPGVTHIVVDEGMDYERALRLLRLPQLPPGAQLVKSAWLSLCLQERRLVDVAGFSIFIPSRYLDHPQPSKAEQDASIPPGTHEALLQTALSPPPPPTRPVSPPQKAKEAPNTQAQPISDDEASDGEETQVSAADLEALISGHYPTSLEGDCEPSPAPAVLDKWVCAQPSSQKATNHNLHITEKLEVLAKAYSVQGDKWRALGYAKAINALKSFHKPVTSYQEACSIPGIGKRMAEKIIEILESGHLRKLDHISESVPVLELFSNIWGAGTKTAQMWYQQGFRSLEDIRSQASLTTQQAIGLKHYSDFLERMPREEATEIEQTVQKAAQAFNSGLLCVACGSYRRGKATCGDVDVLITHPDGRSHRGIFSRLLDSLRQEGFLTDDLVSQEENGQQQKYLGVCRLPGPGRRHRRLDIIVVPYSEFACALLYFTGSAHFNRSMRALAKTKGMSLSEHALSTAVVRNTHGCKVGPGRVLPTPTEKDVFRLLGLPYREPAERDW
2 | binds | (His)6-tagged Polλ244–575 (domain or fragment, human, UniProt Q9UGP5 244-575, looked up) PSSQKATNHNLHITEKLEVLAKAYSVQGDKWRALGYAKAINALKSFHKPVTSYQEACSIPGIGKRMAEKIIEILESGHLRKLDHISESVPVLELFSNIWGAGTKTAQMWYQQGFRSLEDIRSQASLTTQQAIGLKHYSDFLERMPREEATEIEQTVQKAAQAFNSGLLCVACGSYRRGKATCGDVDVLITHPDGRSHRGIFSRLLDSLRQEGFLTDDLVSQEENGQQQKYLGVCRLPGPGRRHRRLDIIVVPYSEFACALLYFTGSAHFNRSMRALAKTKGMSLSEHALSTAVVRNTHGCKVGPGRVLPTPTEKDVFRLLGLPYREPAERDW
